The series deals with MS2 coat protein. Nature of the series: apparent KD of MS2 coat protein; designed switch direction (-1 OFF switch, 1 ON switch): -1; higher = weaker reporter binding. In outline:
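An oligonucleotide input, 200 uM small-molecule ligand, or no input was present during titration of SNAP-549-labelled MS2 coat protein, which was doubled from 0.7 or 1.5 nM to 3 µM. Designed RNA switches had been transcribed on Illumina chips by stalled E. coli RNA polymerase. Apparent KD per design is the median over clusters of curves fitted to normalised cluster fluorescence.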

Setting [1] is: Eterna round: R95, input ligand: FMN 200 uM.
[2] abbreviates: Eterna round: R95, input ligand: microRNA oligo, concentration not stated.
The mark [3] stands for this setting: Eterna round: R95, input ligand: none.
The mark [4] stands for this setting: input ligand: microRNA oligo, concentration not stated.

Regarding “CUAGAUCUUCGGAUCUAGUACAUGAGGAUCACCCAUGUUACGAGCUGAUUUUCAUACAAGCUUUUUGCUCGUCUUAU [Sensor v3 - Turn-off variant 1 - 29] (puzzle: Sensor v3, turn-off variant 1)”, the “apparent KD of MS2 coat protein” value reads like this: under setting [1], 0.0381 µM; under setting [2], 0.297 µM; under setting [3], 0.0413 µM.
Turning to “CCGCUGUGAGGAUAUUAGUAGUAGUCAGAAUAGACUAUUACUGAGAAGGCACAUGAGGAUCACCCAUGUAGCGG [Eli x4 4.25] (Eterna round: R97, puzzle: Exclusion 4)”, the “apparent KD of MS2 coat protein” value runs as follows: (input ligand: FMN 200 uM) 0.0248 µM; (input ligand: none) 0.0289 µM.
Consider “CUGGUCCGAGGAUAUAUUUUGUGAUACAUGAGGAUCACCCAUGUAAUAAGAUGGAAGUAAAUAGAAGGCGGACUAG [Mat - Exclusion 5 - JL mod - D47] (puzzle: Exclusion 5)”, for which the “apparent KD of MS2 coat protein” value stood at 0.0693 µM under setting [1], 0.125 µM under setting [2] and 0.15 µM under setting [3].
As to “GGUUCGAGUGUGAGGAUAUGCUGGUCCUUGGAUCAGCAGAAGGCACAUGAGGAUCACCCAUGUGGUAACGGACC [Mat - Exclusion 4 - Eli Mod - D35] (Eterna round: R97, puzzle: Brourd's mod of Exclusion 4)”, the “apparent KD of MS2 coat protein” value reads like this: (input ligand: FMN 200 uM) 0.263 µM; (input ligand: none) 0.331 µM.
The corresponding values for “CGUGUGUAAGGAUAUUUUGCAAGGCGGUGGACCCGCCUAUUAGAGAAGGUACAUGAGGAUCACCCAUGUGAGCC [Eternabot (L2) Solution 74] (Eterna round: R97, puzzle: Exclusion 4)” are 0.0582 µM and 0.0423 µM.
Regarding “AAUACAAGCAAGAUCCUAAACAUGAGGAUCACCCAUGUGCUCGUCUUGUAAAGUACUAUCACGAAAGUGAUAGUACA [Sensor 3, v1 - 62] (puzzle: Sensor v3, turn-off variant 1)”, the “apparent KD of MS2 coat protein” value under setting [1] was 0.0294 µM, the “apparent KD of MS2 coat protein” value under setting [2] was found to be 0.103 µM and the “apparent KD of MS2 coat protein” value under setting [3] was 0.0327 µM.
Take “UCAAGUAUGUAGGAUAUCGAUGUCUGCGGACAUCGAGAAGGACGUACAUGAGGAUCACCCAUGUAACUUGCAUG [Exclusion 6 - B - 10:c] (puzzle: Exclusion 6)”: the “apparent KD of MS2 coat protein” value under setting [2] is 0.0709 µM.
As for “AGUGCUAACACGAAAGUGUUAGUACAAUAAGCUUGUGAAACAUGAGGAUCACCCAUGUCCUCAUAAGCUCGUCUUAU [salish99_TOv2_r3_014] (puzzle: Sensor v3, turn-off variant 2)”, the “apparent KD of MS2 coat protein” value reads like this: under setting [1], 0.0178 µM; under setting [2], 0.651 µM; under setting [3], 0.0177 µM.
Turning to “AGAUUACGAGGAUAUCGAGUUUAGUACAUGAGGAUCACCCAUGUUAUCCAGGUCUCGUUUCGAGAAGGCGUGAUUC [LRO-Ex5-08] (puzzle: Exclusion 5)”, the “apparent KD of MS2 coat protein” value under setting [2] amounted to 0.2 µM.
On to “GUUAUUUAUGUAGGAUAUGCAAGGCGAACCUAAGCAGAAGGACAUGAGGAUCACCCAUGUAUUGCGGUCUGCGUUCAGAUCGCU [salish99_ExNG1_r4_013] (Eterna round: R96, puzzle: Exclusion NG 1)”, for which the “apparent KD of MS2 coat protein” value was determined as 0.0862 µM (input ligand: FMN 200 uM), 0.015 µM under setting [4] and 0.022 µM (input ligand: none).
“GCCUCACUUGAGGAUCACCCAAGUCAGGAUAUUCACUGAACUGCGUAGCAAUUCGGCCGAAGAAGGGAUUCGGG [Veala] (Eterna round: R97, puzzle: Exclusion 1)”: the “apparent KD of MS2 coat protein” value reads like this: (input ligand: FMN 200 uM) 0.0752 µM; (input ligand: none) 0.107 µM.
As to “GGGCUGCGACACAGCCAAACAAAACAUGAGGAUCACCCAUGUCAGGAUAUACCGAUGCAGCAUCUGUAGAAGGGACAGAUCCAA [Lalaon] (Eterna round: R96, puzzle: Exclusion NG 3)”, the “apparent KD of MS2 coat protein” value by setting is: (input ligand: FMN 200 uM) 0.151 µM; under setting [4], 0.0688 µM; (input ligand: none) 0.0797 µM.
For the sequence “GUCAGCUCGUGAGGAUAUACAUGAGGAUCACCCAUGUGAUCAAUAGCAGCUUCGGCUGCAUUAAUGUAGAAGGUACGAGCUGAU [ENG2/5-C2] (Eterna round: R96, puzzle: Exclusion NG 2)”, the “apparent KD of MS2 coat protein” value runs as follows: (input ligand: FMN 200 uM) 0.105 µM; under setting [4], 0.231 µM; (input ligand: none) 0.463 µM.
Turning to “UAGUUCUGAGGAUAUUCUCCAAAGCACAUGAGGAUCACCCAUGUCCAGUUAUGGCUUUCUGAAGAAGGCAGUCUUA [Eternabot (L2) Solution 49] (Eterna round: R97, puzzle: Exclusion 5)”, the “apparent KD of MS2 coat protein” value reads like this: (input ligand: FMN 200 uM) 0.0879 µM; (input ligand: none) 0.0367 µM.
In the case of “GCUGGUCGAGGAUAUGCAUUCGUGCUUCGGCACGUAAGGUCACAUGAGGAUCACCCAUGUAGAAGGCGACCAGC [E2/6-A1] (Eterna round: R97, puzzle: Exclusion 2)”, the “apparent KD of MS2 coat protein” value runs as follows: (input ligand: FMN 200 uM) 0.0302 µM; (input ligand: none) 0.0175 µM.
Take “UCUGUUAUGCGAGGAUAUCGACCAUUCCUCUUAACAUGAGGAUCACCCAUGUGCUAAACCUACAACGAGAAGGCGCUCAUACUC [JR_ExcNG2_Sub068] (Eterna round: R96, puzzle: Exclusion NG 2)”: the “apparent KD of MS2 coat protein” value is, setting by setting: (input ligand: FMN 200 uM) 0.156 µM; under setting [4], 0.102 µM; (input ligand: none) 0.143 µM.
For “CGGCAAAGGUAGGAUAUGCUAGACGAGAGUCUAGCAGAAGGACCUACAUGAGGAUCACCCAUGUGUCCAAGCCG [Mat - Exclusion 6 - Eli Mod - D20] (Eterna round: R97, puzzle: Exclusion 6)”, the “apparent KD of MS2 coat protein” value came out at 0.032 µM (input ligand: FMN 200 uM) and 0.0973 µM (input ligand: none).
On to “AAAUCGGUAGAGGAUAUUGUACAGGAAACGGUGCGAGAAGGUUACACAUGAGGAUCACCCAUGUUAAAUAGCGA [EX6 #54] (Eterna round: R97, puzzle: Exclusion 6)”, for which the “apparent KD of MS2 coat protein” value stood at 0.0179 µM (input ligand: FMN 200 uM) and 0.0184 µM (input ligand: none).
As for “CGUCAGUGAGGAUAUGGUAACAUUUACAUGAGGAUCACCCAUGUUUCUUGGGACUAAAUACUAGAAGGCACUGACG [JR_Ex5_Sub032] (Eterna round: R97, puzzle: Exclusion 5)”, the “apparent KD of MS2 coat protein” value (input ligand: FMN 200 uM) was found to be 0.0231 µM and the “apparent KD of MS2 coat protein” value (input ligand: none) is 0.015 µM.
For the sequence “UUAAUUAAUAAUUAAGAUCAUUACAUGAGGAUCACCCAUGUCGAGGAUAUCAGCUCGUGUAGAGCUGAGAAGGCGACAAAUUAU [ExNG3/13-B3] (Eterna round: R96, puzzle: Exclusion NG 3)”, the “apparent KD of MS2 coat protein” value runs as follows: (input ligand: FMN 200 uM) 0.586 µM; under setting [4], 0.268 µM; (input ligand: none) 0.633 µM.
For “CAGUACUGAGGAUAUACAUGAGGAUCACCCAUGUGUUCCAGCUAGGAAACUGGCAAAAGUAGAAGGCAGUACUG [salish99_ex3_r3_070] (puzzle: Exclusion 3)”, under setting [2], the “apparent KD of MS2 coat protein” value was determined as 0.0216 µM.
Consider “UAUAUAUAGUAAGGAUAUGUAAUUAUUUCAUAAACAGAAGGUACUGACAUGAGGAUCACCCAUGUUUUAGUGUGGGCAUGUAGA [JMF's solution 43] (Eterna round: R96, puzzle: Exclusion NG 1)”, for which the “apparent KD of MS2 coat protein” value under setting [4] is 0.0602 µM.
Turning to “UUAUUAUGUGUAGGAUAUGCAUAUUAUUAUUAUGCAGAAGGACAUGAGGAUCACCCAUGUAUAUUAUUAUUAUAUAUUAUAUAU [Title] (Eterna round: R96, puzzle: Exclusion NG 1)”, the “apparent KD of MS2 coat protein” value under setting [4] came out at 0.0251 µM.

For the origin of these results see the supplement of paper PMC9170038.
